From patent US20150150960A1, “PROTECTION AGAINST DENGUE VIRUS AND PREVENTION OF SEVERE DENGUE DISEASE” (priority 2010, published 2015)

What was measured:
[1] = target: NS31681-1689 / HLA A*0201 (DENV2 strain S221; human)
[2] = target: NS2B1383-1391 / HLA A*0201 (DENV2 strain S221; human)
[3] = target: NS53058-3066 / HLA A*0201 (DENV2 strain S221; human)
[4] = target: E631-639 / HLA A*0201 (DENV2 strain S221; human)
[5] = target: NS4A2140-2148 / HLA A*0201 (DENV2 strain S221; human)
[6] = target: NS31465-1473 / HLA A*0201 (DENV2 strain S221; human)
[7] = target: NS32013-2022 / HLA A*0201 (DENV2 strain S221; human)
[8] = target: NS31742-1756 / HLA DRB1*0101 (DENV2 strain S221; human)
[9] = target: NS2B1356-1370 / HLA DRB1*0101 (DENV2 strain S221; human)
[10] = target: C53-67 / HLA DRB1*0101 (DENV2 strain S221; human)
[11] = target: NS52966-2980 / HLA DRB1*0101 (DENV2 strain S221; human)
[12] = target: NS2A1199-1213 / HLA DRB1*0101 (DENV2 strain S221; human)
[13] = target: NS2A1192-1200 / HLA A*0101 (DENV2 strain S221; human)
[14] = target: E451-459 / HLA A*0101 (DENV2 strain S221; human)
[15] = target: NS53375-3383 / HLA A*0101 (DENV2 strain S221; human)
[16] = target: NS2A1251-1259 / HLA A*0101 (DENV2 strain S221; human)
[17] = target: NS4B2399-2407 / HLA A*0101 (DENV2 strain S221; human)
[18] = target: NS11090-1099 / HLA A*0101 (DENV2 strain S221; human)
[19] = target: purified HLA A*0201 molecules (human); experiment: inhibition of radiolabeled probe peptide binding to purified HLA
[20] = target: NS52646-2655 / HLA B*0702 (DENV2 strain S221; human)
[21] = target: NS52885-2894 / HLA B*0702 (DENV2 strain S221; human)
[22] = target: NS2A1212-1221 / HLA B*0702 (DENV2 strain S221; human)
[23] = target: NS31808-1817 / HLA B*0702 (DENV2 strain S221; human)
[24] = target: NS31700-1709 / HLA B*0702 (DENV2 strain S221; human)
[25] = target: NS31753-1761 / HLA B*0702 (DENV2 strain S221; human)
[26] = target: NS31682-1690 / HLA B*0702 (DENV2 strain S221; human)
[27] = target: NS53077-3085 / HLA B*0702 (DENV2 strain S221; human)
[28] = target: NS4B2280-2289 / HLA B*0702 (DENV2 strain S221; human)
[29] = target: NS32070-2078 / HLA B*0702 (DENV2 strain S221; human)
[30] = target: NS4B2296-2304 / HLA B*0702 (DENV2 strain S221; human)
[31] = target: NS4B2280-2289 / HLA B*0702 (DENV2 strain S221; human); remark: listed apart in the source
[32] = target: target splenocytes pulsed with NS2B108-122, NS3198-212 and NS3237-251 together (I-A^b-restricted)
[33] = target: NS52608-2616 / HLA A*1101 (DENV2 strain S221; human)
[34] = target: NS4A2074-2083 / HLA A*1101 (DENV2 strain S221; human)
[35] = target: NS53283-3291 / HLA A*1101 (DENV2 strain S221; human)
[36] = target: NS31608-1617 / HLA A*1101 (DENV2 strain S221; human)
[37] = target: NS2B1450-1459 / HLA A*0201 (DENV2 strain S221; human)
[38] = target: NS2B1355-1363 / HLA A*0201 (DENV2 strain S221; human)
[39] = target: NS53079-3087 / HLA A*1101 (DENV2 strain S221; human)
[40] = target: NS4A2205-2213 / HLA A*0201 (DENV2 strain S221; human)
[41] = target: NS31509-1517 / HLA A*1101 (DENV2 strain S221; human)
[42] = target: NS4B2315-2323 / HLA A*1101 (DENV2 strain S221; human)
[43] = target: NS53112-3121 / HLA A*1101 (DENV2 strain S221; human)
[44] = target: NS31978-1987 / HLA B*0702 (DENV2 strain S221; human)
[45] = target: NS31863-1871 / HLA A*1101 (DENV2 strain S221; human)
[46] = target: purified HLA B*0702 molecules (human); experiment: inhibition of radiolabeled probe peptide binding to purified HLA

“splenic CD8+ T cells of DENV2 (S221)-infected HLA A*0201 transgenic IFN-α/βR-/- mice (cells without a defined receptor)” gave a T cell responses [SFC] mouse (IFNγ ELISPOT) [1] of 299 SFC, a T cell responses [SFC] mouse (IFNγ ELISPOT) [2] of 519 SFC and a T cell responses [SFC] mouse (IFNγ ELISPOT) [3] of 353 SFC. For the same substance, the T cell responses [SFC] mouse (IFNγ ELISPOT) [4] was 265 SFC, the T cell responses [SFC] mouse (IFNγ ELISPOT) [5] was 384 SFC and the T cell responses [SFC] mouse (IFNγ ELISPOT) [6] was 207 SFC. The T cell responses [SFC] mouse (IFNγ ELISPOT) [7] was 417 SFC.
“splenic CD4+ T cells of DENV2 (S221)-infected HLA DRB1*0101 transgenic IFN-α/βR-/- mice (cells without a defined receptor)” was tested, and the T cell responses [SFC] mouse (IFNγ ELISPOT) [8] was 448 SFC, the T cell responses [SFC] mouse (IFNγ ELISPOT) [9] was 65 SFC and the T cell responses [SFC] mouse (IFNγ ELISPOT) [10] was 77 SFC. It also gave a T cell responses [SFC] mouse (IFNγ ELISPOT) [11] of 851 SFC and a T cell responses [SFC] mouse (IFNγ ELISPOT) [12] of 764 SFC.
For “splenic CD8+ T cells of DENV2 (S221)-infected HLA A*0101 transgenic IFN-α/βR-/- mice (cells without a defined receptor)”, the T cell responses [SFC] mouse (IFNγ ELISPOT) [13] was 430 SFC, the T cell responses [SFC] mouse (IFNγ ELISPOT) [14] was 327 SFC and the T cell responses [SFC] mouse (IFNγ ELISPOT) [15] was 495 SFC. For the same substance, the T cell responses [SFC] mouse (IFNγ ELISPOT) [16] was 465 SFC, the T cell responses [SFC] mouse (IFNγ ELISPOT) [17] was 153 SFC and the T cell responses [SFC] mouse (IFNγ ELISPOT) [18] was 228 SFC.
Work on NS31681-1689 (peptide) yielded an IC50 [19] of 18 nM.
“splenic CD8+ T cells of DENV2 (S221)-infected HLA B*0702 transgenic IFN-α/βR-/- mice (cells without a defined receptor)” was tested, and the T cell responses [SFC] mouse (IFNγ ELISPOT) [20] was 994 SFC, the T cell responses [SFC] mouse (IFNγ ELISPOT) [21] was 811 SFC and the T cell responses [SFC] mouse (IFNγ ELISPOT) [22] was 400 SFC. It also gave a T cell responses [SFC] mouse (IFNγ ELISPOT) [23] of 364 SFC, a T cell responses [SFC] mouse (IFNγ ELISPOT) [24] of 1060 SFC and a T cell responses [SFC] mouse (IFNγ ELISPOT) [25] of 509 SFC. The T cell responses [SFC] mouse (IFNγ ELISPOT) [26] was 1290 SFC, the T cell responses [SFC] mouse (IFNγ ELISPOT) [27] was 487 SFC and the T cell responses [SFC] mouse (IFNγ ELISPOT) [28] was 1540 SFC. The T cell responses [SFC] mouse (IFNγ ELISPOT) [29] was 1850 SFC and the T cell responses [SFC] mouse (IFNγ ELISPOT) [30] was 1010 SFC.
“splenic CD8+ T cells of DENV2 (S221)-infected HLA B*0702 transgenic IFN-α/βR+/+ mice (cells without a defined receptor)” was tested, and the IFNγ ELISPOT (SFC/10^6 CD8+ T cells) [31] was 50.
Substance “CD4+ T cells of DENV2-infected IFN-α/βR-/- mice (C57BL/6 background) (cells without a defined receptor)” has an in vivo cytotoxicity assay, percentage killing [32] of 30%.
Substance “PBMC from HLA matched DENV seropositive human donors (cells without a defined receptor)” has a T cell responses [SFC] human (IFNγ ELISPOT) [33] of 0 SFC, a T cell responses [SFC] human (IFNγ ELISPOT) [1] of 401 SFC and a T cell responses [SFC] human (IFNγ ELISPOT) [20] of 0 SFC. For the same substance, the T cell responses [SFC] human (IFNγ ELISPOT) [34] was 3090 SFC, the T cell responses [SFC] human (IFNγ ELISPOT) [21] was 1340 SFC and the T cell responses [SFC] human (IFNγ ELISPOT) [2] was 434 SFC. It also gave a T cell responses [SFC] human (IFNγ ELISPOT) [22] of 335 SFC, a T cell responses [SFC] human (IFNγ ELISPOT) [9] of 279 SFC and a T cell responses [SFC] human (IFNγ ELISPOT) [35] of 800 SFC. It also gave a T cell responses [SFC] human (IFNγ ELISPOT) [36] of 880 SFC, a T cell responses [SFC] human (IFNγ ELISPOT) [14] of 67 SFC and a T cell responses [SFC] human (IFNγ ELISPOT) [37] of 588 SFC. The T cell responses [SFC] human (IFNγ ELISPOT) [3] was 597 SFC, the T cell responses [SFC] human (IFNγ ELISPOT) [4] was 393 SFC and the T cell responses [SFC] human (IFNγ ELISPOT) [10] was 314 SFC. The T cell responses [SFC] human (IFNγ ELISPOT) [23] was 232 SFC, the T cell responses [SFC] human (IFNγ ELISPOT) [24] was 1430 SFC and the T cell responses [SFC] human (IFNγ ELISPOT) [11] was 729 SFC. The T cell responses [SFC] human (IFNγ ELISPOT) [25] was 410 SFC, the T cell responses [SFC] human (IFNγ ELISPOT) [26] was 207 SFC and the T cell responses [SFC] human (IFNγ ELISPOT) [38] was 417 SFC. For the same substance, the T cell responses [SFC] human (IFNγ ELISPOT) [5] was 297 SFC, the T cell responses [SFC] human (IFNγ ELISPOT) [27] was 390 SFC and the T cell responses [SFC] human (IFNγ ELISPOT) [15] was 143 SFC. The T cell responses [SFC] human (IFNγ ELISPOT) [39] was 0 SFC, the T cell responses [SFC] human (IFNγ ELISPOT) [16] was 143 SFC and the T cell responses [SFC] human (IFNγ ELISPOT) [17] was 92 SFC. The T cell responses [SFC] human (IFNγ ELISPOT) [28] was 0 SFC, the T cell responses [SFC] human (IFNγ ELISPOT) [18] was 104 SFC and the T cell responses [SFC] human (IFNγ ELISPOT) [6] was 495 SFC. It also gave a T cell responses [SFC] human (IFNγ ELISPOT) [40] of 301 SFC, a T cell responses [SFC] human (IFNγ ELISPOT) [41] of 0 SFC and a T cell responses [SFC] human (IFNγ ELISPOT) [42] of 0 SFC. It also gave a T cell responses [SFC] human (IFNγ ELISPOT) [43] of 0 SFC, a T cell responses [SFC] human (IFNγ ELISPOT) [44] of 1820 SFC and a T cell responses [SFC] human (IFNγ ELISPOT) [7] of 312 SFC. It also gave a T cell responses [SFC] human (IFNγ ELISPOT) [12] of 249 SFC, a T cell responses [SFC] human (IFNγ ELISPOT) [45] of 0 SFC and a T cell responses [SFC] human (IFNγ ELISPOT) [30] of 460 SFC.
NS4B2296-2305 (peptide) was tested, and the IC50 [46] was > 1000 nM.
In the case of “splenic CD8+ T cells of DENV2 (S221)-infected HLA A*1101 transgenic IFN-α/βR-/- mice (cells without a defined receptor)”, the T cell responses [SFC] mouse (IFNγ ELISPOT) [34] is reported as 148 SFC, the T cell responses [SFC] mouse (IFNγ ELISPOT) [35] is reported as 358 SFC and the T cell responses [SFC] mouse (IFNγ ELISPOT) [36] is reported as 1000 SFC. It also gave a T cell responses [SFC] mouse (IFNγ ELISPOT) [39] of 105 SFC, a T cell responses [SFC] mouse (IFNγ ELISPOT) [41] of 436 SFC and a T cell responses [SFC] mouse (IFNγ ELISPOT) [42] of 712 SFC. For the same substance, the T cell responses [SFC] mouse (IFNγ ELISPOT) [45] was 208 SFC.
